The target in assay [1] is human P-selectin glycoprotein ligand-1 (PSGL-1) (human) (UniProt Q14242). In words: cell-based or functional assay.
Assay [2] deals with T1, recombinant mouse P-selectin/Fc chimera (R&D Systems) (mouse; human, UniProt Q01102 42-709).
T1 construct: range 42-709; The CD33 signal peptide (Met1-Ala16) of the construct is left out; also called mouse P-Selectin fused to the Fc region of human IgG1; P-selectin-Fc fusion protein; not shown: Human IgG1 constant region, Pro100-Lys330
T1 sequence: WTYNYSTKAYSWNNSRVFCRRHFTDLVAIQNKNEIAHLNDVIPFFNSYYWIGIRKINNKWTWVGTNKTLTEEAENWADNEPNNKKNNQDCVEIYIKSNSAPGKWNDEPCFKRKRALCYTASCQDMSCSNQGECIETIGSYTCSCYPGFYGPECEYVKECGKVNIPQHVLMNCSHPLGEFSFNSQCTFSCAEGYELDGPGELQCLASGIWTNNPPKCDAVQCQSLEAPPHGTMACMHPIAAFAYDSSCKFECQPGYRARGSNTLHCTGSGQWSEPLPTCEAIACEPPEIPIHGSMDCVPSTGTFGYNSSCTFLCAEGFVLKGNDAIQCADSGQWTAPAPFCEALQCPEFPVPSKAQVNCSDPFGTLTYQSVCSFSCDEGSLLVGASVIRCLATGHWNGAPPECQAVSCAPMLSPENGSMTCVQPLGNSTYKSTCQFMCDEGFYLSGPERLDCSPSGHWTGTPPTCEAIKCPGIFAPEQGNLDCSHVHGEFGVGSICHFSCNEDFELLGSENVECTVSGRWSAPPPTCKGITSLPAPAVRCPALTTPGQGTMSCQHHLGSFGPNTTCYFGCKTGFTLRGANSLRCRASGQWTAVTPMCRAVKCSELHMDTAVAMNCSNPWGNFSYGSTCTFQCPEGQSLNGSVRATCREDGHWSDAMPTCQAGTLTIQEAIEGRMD
In words: flow cytometry on Con A-activated mouse T cells, FITC-anti human IgG Fc detection. The protocol: To determine ability of selectins (P-Selectin, E-Selectin, and L-Selectin) to bind to activated T cells, freshly prepared splenocytes from C57BL/6 mice were activated and harvested at days 2, 4, and 6. Non-activated T cells (i.e., freshly prepared splenocytes at day 0) were also analyzed. The day 2 sample constituted 3×10⁶ cells/ml of splenocytes that were activated with 2 ug/ml of Concanavalin A (Con A) in DMEM+10% FBS for 2 days. Live cells were isolated by Ficoll gradient separation. The day 4 sample was obtained from cells that were activated with Con A for 3 days and maintained in medium containing 5 ng/ml of IL-2 for an additional day. The day 6 sample was derived from cells that were activated with Con A for 3 days and maintained in 5 ng/ml of IL-2 for 3 days.
To assay the samples by FACS analysis, 2×10⁵ cells per well from days 0, 2, 4 and 6 were incubated at 4° C. for 30 minutes with 40 ul/well of mouse P-Selectin, E-Selectin, or L-Selectin fused to the Fc region of human IgG1 (R&D Systems, Minneapolis, Minn.) at concentrations ranging from 20 ug/ml with two-fold serial dilution to 0.156 ug/ml. Following the incubation, cells were washed with 1× FACScan buffer (1×PBS without calcium and magnesium ions from Biochrom AG, Berlin and 2% FBS). […]
(Flow cytometry measures light scatter and fluorescence of single cells or particles in a stream.)

human P-selectin glycoprotein ligand-1 (PSGL-1) (human), sequence (Q14242 42-412): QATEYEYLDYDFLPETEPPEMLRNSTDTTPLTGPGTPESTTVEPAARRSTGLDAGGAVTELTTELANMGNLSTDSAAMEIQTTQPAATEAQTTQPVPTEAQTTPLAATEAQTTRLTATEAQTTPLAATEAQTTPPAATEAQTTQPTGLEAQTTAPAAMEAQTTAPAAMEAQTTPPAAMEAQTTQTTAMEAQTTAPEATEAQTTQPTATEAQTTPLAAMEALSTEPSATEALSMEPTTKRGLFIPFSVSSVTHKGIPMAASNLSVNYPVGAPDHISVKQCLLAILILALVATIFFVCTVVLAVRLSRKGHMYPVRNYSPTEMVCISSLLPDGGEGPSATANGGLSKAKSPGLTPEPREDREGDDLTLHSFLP

In assay [1], “anti-PSGL-1 antibody clone KPL-1 (BD PharMingen)” registered a percentage of apoptotic cells (Annexin V / PI, FACS) in PHA-activated human PBMC, day 3, with rabbit anti-mouse Ig cross-linker of 8.5% and a percentage of apoptotic cells (Annexin V / PI, FACS) in PHA-activated human PBMC, day 8, with rabbit anti-mouse Ig cross-linker of 24%.

B1: mouse P-selectin glycoprotein ligand-1 (PSGL-1), first designated T cell apoptosis inducing protein (TAIP) (receptor, UniProt Q62170 42-397, looked up)
chain: QVVGDDDFEDPDYTYNTDPPELLKNVTNTVAAHPELPTTVVMLERDSTSAGTSERATEKIATTDPTAPGTGGTAVGMLSTDSATQWSLTSVETVQPASTEVETSQPAPMEAETSQPAPMEAETSQPAPMEAETSQPAPMEADTSQPAPMEAETSQPAPNEAETSKPAPTEAETSKPAPTEAETTQLPRIQAVKTLFTTSAATEVPSTEPTTMETASTESNESTIFLGPSVTHLPDSGLKKGLIVTPGNSPAPTLPGSSDLIPVKQCLLIILILASLATIFLVCTVVLAVRLSRKTHMYPVRNYSPTEMICISSLLPEGGDGAPVTANGGLPKVQDLKTEPSGDRDGDDLTLHSFLP
notes: whole, on cells; Endogenous protein on mouse T cells; For immunoprecipitation and western blot it was solubilised from RL1 T cell lysates; also called TAIP antigen; CD162
Take B1: the binding result in assay [2] is “binds”.
